Data taken from patent US20160185837A1 (AstraZeneca / MedImmune, published 2016).
Substitutions are numbered along the chain they refer to.

Key:
Assay in all cases: cell-based or functional assay
mouse GLP-1 receptor = biological target: T1, mouse GLP-1 receptor (mouse, UniProt O35659 22-463)
T1 sequence (looked up): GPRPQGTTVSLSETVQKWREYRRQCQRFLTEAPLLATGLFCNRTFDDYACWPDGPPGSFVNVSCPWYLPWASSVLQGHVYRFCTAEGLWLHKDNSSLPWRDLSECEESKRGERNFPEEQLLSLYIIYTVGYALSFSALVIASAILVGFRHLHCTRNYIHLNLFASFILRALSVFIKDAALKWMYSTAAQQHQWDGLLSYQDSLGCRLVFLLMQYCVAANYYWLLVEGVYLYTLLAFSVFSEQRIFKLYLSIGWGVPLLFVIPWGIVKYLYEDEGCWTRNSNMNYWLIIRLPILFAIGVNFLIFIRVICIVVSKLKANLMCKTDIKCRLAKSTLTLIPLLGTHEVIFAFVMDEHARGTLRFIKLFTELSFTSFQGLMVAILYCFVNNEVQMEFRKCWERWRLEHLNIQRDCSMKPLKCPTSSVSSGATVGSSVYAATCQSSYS

rat GIP receptor = biological target: T2, rat GIP receptor (rat, UniProt P43219 19-455)
T2 sequence (looked up): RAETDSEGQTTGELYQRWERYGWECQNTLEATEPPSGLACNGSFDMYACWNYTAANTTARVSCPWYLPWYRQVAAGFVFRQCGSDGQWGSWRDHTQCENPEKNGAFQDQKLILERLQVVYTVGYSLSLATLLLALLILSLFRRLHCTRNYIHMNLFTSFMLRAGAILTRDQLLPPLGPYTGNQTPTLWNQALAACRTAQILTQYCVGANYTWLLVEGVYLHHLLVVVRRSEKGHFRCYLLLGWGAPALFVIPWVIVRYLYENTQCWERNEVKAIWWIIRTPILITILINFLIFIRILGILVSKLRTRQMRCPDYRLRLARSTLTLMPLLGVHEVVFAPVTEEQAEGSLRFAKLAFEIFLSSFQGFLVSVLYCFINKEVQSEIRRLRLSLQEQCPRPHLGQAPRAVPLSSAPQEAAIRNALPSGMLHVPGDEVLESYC

human GLP-1 receptor = human GLP-1 receptor (human, UniProt P43220 24-463)
mouse GIP receptor = biological target: T3, mouse GIP receptor (mouse, UniProt Q0P543 19-460)
T3 sequence (looked up): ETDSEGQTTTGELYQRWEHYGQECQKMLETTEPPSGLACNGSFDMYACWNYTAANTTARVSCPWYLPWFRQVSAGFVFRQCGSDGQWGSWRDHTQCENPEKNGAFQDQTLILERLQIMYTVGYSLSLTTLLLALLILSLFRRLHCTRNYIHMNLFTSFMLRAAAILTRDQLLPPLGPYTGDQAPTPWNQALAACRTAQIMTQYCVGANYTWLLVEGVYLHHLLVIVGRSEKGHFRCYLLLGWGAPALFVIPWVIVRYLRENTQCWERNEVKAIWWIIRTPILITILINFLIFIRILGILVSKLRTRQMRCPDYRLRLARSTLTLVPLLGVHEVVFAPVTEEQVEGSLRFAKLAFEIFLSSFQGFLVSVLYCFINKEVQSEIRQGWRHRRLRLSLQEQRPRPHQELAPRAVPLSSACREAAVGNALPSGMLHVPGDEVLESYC

human glucagon receptor = human glucagon receptor (human, UniProt P47871 26-477)
human GIP receptor = biological target: T4, human GIP receptor (human, UniProt P48546 22-466)
T4 sequence (looked up): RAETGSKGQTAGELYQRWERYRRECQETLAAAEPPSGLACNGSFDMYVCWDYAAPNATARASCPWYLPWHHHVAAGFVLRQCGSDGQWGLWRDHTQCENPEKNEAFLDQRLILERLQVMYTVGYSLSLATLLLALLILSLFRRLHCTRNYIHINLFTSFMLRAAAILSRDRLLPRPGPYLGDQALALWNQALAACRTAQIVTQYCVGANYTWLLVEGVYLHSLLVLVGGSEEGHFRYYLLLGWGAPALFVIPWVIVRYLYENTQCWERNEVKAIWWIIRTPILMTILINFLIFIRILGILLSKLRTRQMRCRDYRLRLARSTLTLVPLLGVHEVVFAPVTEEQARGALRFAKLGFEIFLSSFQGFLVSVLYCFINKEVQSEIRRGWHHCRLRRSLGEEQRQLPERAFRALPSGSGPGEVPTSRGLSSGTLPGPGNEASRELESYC

rat GLP-1 receptor = biological target: T5, rat GLP-1 receptor (rat, UniProt P32301 22-463)
T5 sequence (looked up): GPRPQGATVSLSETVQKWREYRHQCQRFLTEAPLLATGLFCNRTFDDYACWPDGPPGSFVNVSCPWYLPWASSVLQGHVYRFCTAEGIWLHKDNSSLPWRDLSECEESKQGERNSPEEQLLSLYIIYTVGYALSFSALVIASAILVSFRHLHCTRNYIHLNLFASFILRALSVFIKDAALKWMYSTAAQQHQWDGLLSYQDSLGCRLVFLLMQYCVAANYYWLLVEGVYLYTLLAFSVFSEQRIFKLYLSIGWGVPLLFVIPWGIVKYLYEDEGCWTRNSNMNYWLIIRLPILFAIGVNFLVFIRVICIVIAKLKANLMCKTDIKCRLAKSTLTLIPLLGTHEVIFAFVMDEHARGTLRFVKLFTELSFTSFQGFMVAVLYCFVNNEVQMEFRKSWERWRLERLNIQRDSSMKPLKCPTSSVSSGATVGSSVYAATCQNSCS

B1: IP085 (Fc fusion)
chain: YSEGTFTSDYSKLLEEEAVRLFIEWLLAGAPPGGSGSTASSGSGSATGGGGAATHTCPPCPAPEF
cAMP EC50 (mouse GLP-1 receptor): 0.95 nM
cAMP EC50, Batch 4 (mouse GLP-1 receptor): 0.58 nM
cAMP EC50 (rat GIP receptor): 0.15 nM
cAMP EC50, Batch 4 (rat GIP receptor): 0.031 nM
cAMP EC50 (human GLP-1 receptor): 0.15 nM
cAMP EC50, Batch 4 (human GLP-1 receptor): 0.1 nM
cAMP EC50 (mouse GIP receptor): 0.72 nM
cAMP EC50, Batch 4 (mouse GIP receptor): 0.21 nM
cAMP EC50 (human glucagon receptor): 7.1 nM
cAMP EC50, Batch 4 (human glucagon receptor): 3.6 nM
cAMP EC50 (human GIP receptor): 0.0099 nM
cAMP EC50, Batch 4 (human GIP receptor): 0.0065 nM
cAMP EC50 (rat GLP-1 receptor): 0.1 nM
cAMP EC50, Batch 4 (rat GLP-1 receptor): 0.023 nM

B2: IP131 (Fc fusion)
chain: YSEGTFTSDYSKLLEEEAVRLFIEWLLAGGGGGGSGGGGSGGGGSGGGGSATHTCPPCPAPEF
cAMP EC50 (mouse GLP-1 receptor): 1 nM
cAMP EC50 (rat GIP receptor): 0.23 nM
cAMP EC50 (human GLP-1 receptor): 0.1 nM
cAMP EC50 (mouse GIP receptor): 5.1 nM
cAMP EC50 (human glucagon receptor): 23 nM
cAMP EC50 (human GIP receptor): 0.0091 nM
cAMP EC50 (rat GLP-1 receptor): 0.1 nM

B3: IP266 (Fc fusion)
chain: B2 chain with G30A, G31P, G32P
cAMP EC50 (mouse GLP-1 receptor): 0.76 nM
cAMP EC50 (rat GIP receptor): 0.038 nM
cAMP EC50 (human GLP-1 receptor): 0.15 nM
cAMP EC50 (mouse GIP receptor): 0.3 nM
cAMP EC50 (human glucagon receptor): 16 nM
cAMP EC50 (human GIP receptor): 0.012 nM
cAMP EC50 (rat GLP-1 receptor): 0.3 nM

B4: IP243 (Fc fusion)
chain: YSEGTFTSDYSKLLEEEAQRLFIEWLVKGPAAAGGSGSTASSGSGSATGGGGAATHTCPPCPAPEF
cAMP EC50 (mouse GLP-1 receptor): 0.36 nM
cAMP EC50 (rat GIP receptor): 0.091 nM
cAMP EC50 (human GLP-1 receptor): 0.25 nM
cAMP EC50, Batch 2 (human GLP-1 receptor): 0.21 nM
cAMP EC50, Batch 3 (human GLP-1 receptor): 0.17 nM
cAMP EC50 (mouse GIP receptor): 32 nM
cAMP EC50 (human glucagon receptor): > 2100 nM
cAMP EC50, Batch 2 (human glucagon receptor): 1400 nM
cAMP EC50, Batch 3 (human glucagon receptor): 1400 nM
cAMP EC50 (human GIP receptor): 0.01 nM
cAMP EC50, Batch 2 (human GIP receptor): 0.0069 nM
cAMP EC50, Batch 3 (human GIP receptor): 0.0072 nM
cAMP EC50 (rat GLP-1 receptor): 0.024 nM

B5: IP212 (Fc fusion)
chain: B4 chain with Q19V, L21E, E24A
cAMP EC50 (mouse GLP-1 receptor): 0.35 nM
cAMP EC50 (rat GIP receptor): 0.12 nM
cAMP EC50 (human GLP-1 receptor): 0.087 nM
cAMP EC50 (mouse GIP receptor): 190 nM
cAMP EC50 (human glucagon receptor): > 4000 nM
cAMP EC50 (human GIP receptor): 0.0081 nM
cAMP EC50 (rat GLP-1 receptor): 0.034 nM

B6: IP237 (Fc fusion)
chain: YSEGTFTSDYSKLLEEEAVRLFIEWLVKGPGGGGGSGGGGSGGGGSGGGGSATHTCPPCPAPEF
cAMP EC50 (mouse GLP-1 receptor): 0.29 nM
cAMP EC50 (rat GIP receptor): 0.14 nM
cAMP EC50 (human GLP-1 receptor): 0.095 nM
cAMP EC50 (mouse GIP receptor): 170 nM
cAMP EC50 (human glucagon receptor): > 1800 nM
cAMP EC50 (human GIP receptor): 0.012 nM
cAMP EC50 (rat GLP-1 receptor): 0.023 nM

B7: IP258 (Fc fusion)
chain: B6 chain with E15D
cAMP EC50 (mouse GLP-1 receptor): 2.3 nM
cAMP EC50 (rat GIP receptor): 1.5 nM
cAMP EC50 (human GLP-1 receptor): 0.42 nM
cAMP EC50 (mouse GIP receptor): 870 nM
cAMP EC50 (human glucagon receptor): > 19000 nM
cAMP EC50 (human GIP receptor): 0.039 nM
cAMP EC50 (rat GLP-1 receptor): 0.12 nM

B8: IP262 (Fc fusion)
chain: B6 chain with V27L
cAMP EC50 (mouse GLP-1 receptor): 0.53 nM
cAMP EC50 (rat GIP receptor): 0.019 nM
cAMP EC50 (human GLP-1 receptor): 0.21 nM
cAMP EC50 (mouse GIP receptor): 3 nM
cAMP EC50 (human glucagon receptor): 63 nM
cAMP EC50 (human GIP receptor): 0.01 nM
cAMP EC50 (rat GLP-1 receptor): 0.036 nM

B9: IP264 (Fc fusion)
chain: B6 chain with P30K
cAMP EC50 (mouse GLP-1 receptor): 0.3 nM
cAMP EC50 (rat GIP receptor): 0.094 nM
cAMP EC50 (human GLP-1 receptor): 0.1 nM
cAMP EC50 (mouse GIP receptor): 97 nM
cAMP EC50 (human glucagon receptor): > 9800 nM
cAMP EC50 (human GIP receptor): 0.017 nM
cAMP EC50 (rat GLP-1 receptor): 0.026 nM

B10: IP260 (Fc fusion)
chain: B6 chain with R20Q
cAMP EC50 (mouse GLP-1 receptor): 5.3 nM
cAMP EC50 (rat GIP receptor): 0.45 nM
cAMP EC50 (human GLP-1 receptor): 0.91 nM
cAMP EC50 (mouse GIP receptor): 2400 nM
cAMP EC50 (human glucagon receptor): > 16000 nM
cAMP EC50 (human GIP receptor): 0.033 nM
cAMP EC50 (rat GLP-1 receptor): 0.25 nM

B11: IP261 (Fc fusion)
chain: B6 chain with I23V
cAMP EC50 (mouse GLP-1 receptor): 0.34 nM
cAMP EC50 (rat GIP receptor): 0.27 nM
cAMP EC50 (human GLP-1 receptor): 0.14 nM
cAMP EC50 (mouse GIP receptor): 230 nM
cAMP EC50 (human glucagon receptor): > 2400 nM
cAMP EC50 (human GIP receptor): 0.03 nM
cAMP EC50 (rat GLP-1 receptor): 0.028 nM

B12: IP259 (Fc fusion)
chain: B6 chain with E16K
cAMP EC50 (mouse GLP-1 receptor): 0.31 nM
cAMP EC50 (rat GIP receptor): 0.033 nM
cAMP EC50 (human GLP-1 receptor): 0.1 nM
cAMP EC50 (mouse GIP receptor): 12 nM
cAMP EC50 (human glucagon receptor): > 480 nM
cAMP EC50 (human GIP receptor): 0.027 nM
cAMP EC50 (rat GLP-1 receptor): 0.029 nM

B13: IP263 (Fc fusion)
chain: B6 chain with G29Q
cAMP EC50 (mouse GLP-1 receptor): 0.96 nM
cAMP EC50 (rat GIP receptor): 1.1 nM
cAMP EC50 (human GLP-1 receptor): 0.14 nM
cAMP EC50 (mouse GIP receptor): 7000 nM
cAMP EC50 (human glucagon receptor): > 18000 nM
cAMP EC50 (human GIP receptor): 0.027 nM
cAMP EC50 (rat GLP-1 receptor): 0.042 nM
